# Results taken from patent publication US20090257987A1, “Method of generating dopamine-secreting cells” (Ramot At Tel Aviv University Ltd., priority 2008, published 2009).
# Legend:
# Type in all cases: cell-based
# [1] = test system: human MSCs; assay: Intracellular FACS analysis of TH expression; conditions: none of the untreated cells
# Method: Induction of differentiation: The differentiation protocol was composed of 2 steps. In step 1, cells were transferred to serum-free medium (DMEM) supplemented with 2 mM glutamine, 100 μg/ml streptomycin, 100 units/ml penicillin, 12.5 units/ml nystatin (Biological Industries), N2 supplement (Invitrogen, New Haven, Conn.) and 20 ng/ml fibroblast growth factor 2 and epidermal growth factor (both from R&D Systems, Minneapolis, Minn.) for 48-72 hours. In step 2, the medium was changed to Basic induction medium containing Neurobasal, B27 (both from Invitrogen), in addition to 1 mM dibutyryl cyclic AMP (dbcAMP), 3-isobutyl-1-methyl-xanthine (IBMX), and 200 μM ascorbic acid (all from Sigma, St Louis, Mo.). […]
# Intracellular fluorescence-activated cell sorter (FACS) analysis: Cells were harvested from the tissue culture flasks, centrifuged, and resuspended in phosphate-buffered saline (PBS). […] The results were analyzed with CellQuest software. […]
# [2] = test system: human MSCs; assay: HPLC analysis of dopamine secretion
# Method: Induction of differentiation: The differentiation protocol was composed of 2 steps. In step 1, cells were transferred to serum-free medium (DMEM) supplemented with 2 mM glutamine, 100 μg/ml streptomycin, 100 units/ml penicillin, 12.5 units/ml nystatin (Biological Industries), N2 supplement (Invitrogen, New Haven, Conn.) and 20 ng/ml fibroblast growth factor 2 and epidermal growth factor (both from R&D Systems, Minneapolis, Minn.) for 48-72 hours. In step 2, the medium was changed to Basic induction medium containing Neurobasal, B27 (both from Invitrogen), in addition to 1 mM dibutyryl cyclic AMP (dbcAMP), 3-isobutyl-1-methyl-xanthine (IBMX), and 200 μM ascorbic acid (all from Sigma, St Louis, Mo.). The following factors were added to the Basic induction medium in different combinations: brain-derived neurotrophic factor (BDNF; 50 ng/ml), glial-derived neurotrophic factor (GDNF;10 ng/ml), neurturin (100 ng/ml), neurotrophin 3 (NT3; 50 ng/ml), and fibroblast growth factor 8 (FGF8; 100 ng/ml (all from Cytolab, Rehovot, Israel); transforming growth factor β3 (TGFβ3; 2 ng/ml), sonic hedgehog (Shh; 500 ng/ml, both from R&D); estrogen (0.1 μM, Sigma); and all-trans-retinoic acid (RA; 0.1 μM, Sigma). High performance liquid chromotography (HPLC): Reverse-phase HPLC coupled with an electrochemical detector (ECD) was used to measure dopamine levels. […]
# [3] = test system: human MSCs; assay: Bright-light microscopy of cell morphology after induction; conditions: from MSC fibroblast shape
# Method: Induction of differentiation: The differentiation protocol was composed of 2 steps. In step 1, cells were transferred to serum-free medium (DMEM) supplemented with 2 mM glutamine, 100 μg/ml streptomycin, 100 units/ml penicillin, 12.5 units/ml nystatin (Biological Industries), N2 supplement (Invitrogen, New Haven, Conn.) and 20 ng/ml fibroblast growth factor 2 and epidermal growth factor (both from R&D Systems, Minneapolis, Minn.) for 48-72 hours. In step 2, the medium was changed to Basic induction medium containing Neurobasal, B27 (both from Invitrogen), in addition to 1 mM dibutyryl cyclic AMP (dbcAMP), 3-isobutyl-1-methyl-xanthine (IBMX), and 200 μM ascorbic acid (all from Sigma, St Louis, Mo.). The following factors were added to the Basic induction medium in different combinations: brain-derived neurotrophic factor (BDNF; 50 ng/ml), glial-derived neurotrophic factor (GDNF;10 ng/ml), neurturin (100 ng/ml), neurotrophin 3 (NT3; 50 ng/ml), and fibroblast growth factor 8 (FGF8; 100 ng/ml (all from Cytolab, Rehovot, Israel); transforming growth factor β3 (TGFβ3; 2 ng/ml), sonic hedgehog (Shh; 500 ng/ml, both from R&D); estrogen (0.1 μM, Sigma); and all-trans-retinoic acid (RA; 0.1 μM, Sigma).
# [4] = test system: human MSCs; assay: Real-time quantitative PCR of Nurr1 and GAD67; conditions: real-time PCR versus GAPDH
# Method: Induction of differentiation: The differentiation protocol was composed of 2 steps. In step 1, cells were transferred to serum-free medium (DMEM) supplemented with 2 mM glutamine, 100 μg/ml streptomycin, 100 units/ml penicillin, 12.5 units/ml nystatin (Biological Industries), N2 supplement (Invitrogen, New Haven, Conn.) and 20 ng/ml fibroblast growth factor 2 and epidermal growth factor (both from R&D Systems, Minneapolis, Minn.) for 48-72 hours. […]
# RNA isolation and cDNA synthesis: Total RNA was isolated by a commercial TriReagent (Sigma). The amount and quality of RNA was determined with the ND-1000 spectrophotometer (NanoDrop, Wilmington, Del.). […]
# Real-time quantitative reverse transcription polymerase chain reaction (PCR): Real-time quantitative PCR of the desired genes was performed in an ABI Prism 7700 sequence detection system (Applied Biosystems, Foster City, Calif.) using Syber Green PCR Master Mix (Applied Biosystems) and the following primers: glyceraldehyde-3-phosphate dehydrogenase (GAPDH) sense CGACAGTCAGCCGCATCTT (SEQ ID NO: 1), GAPDH antisense […] […] For each gene, the specificity of the PCR product was assessed by verifying a single peak in the melting curve analysis. […] Quantitative calculations of the gene of interest versus GAPDH were done according to the ΔΔCT method, as instructed in the user bulletin of the ABI Prism 7700 sequence detection system (updated 10/2001).
molecule,measurement,setting,value
"brain-derived neurotrophic factor (protein, UniProt P23560 19-247, looked up, brain-derived neurotrophic factor (50 ng/ml) added to the Basic induction medium) Neurotrophic factor BDNF …: APMKEANIRGQGGLAYPGVRTHGTLESVNGPKAGSRGLTSLADTFEHVIEELLDEDQKVRPNEENNKDADLYTSRVMLSSQVPLEPPLLFLLEEYKNYLDAANMSMRVRRHSDPARRGELSVCDSISEWVTAADKKTAVDMSGGTVTVLEKVPVSKGQLKQYFYETKCNPMGYTKEGCRGIDKRHWNSQCRTTQSYVRALTMDSKKRIGWRFIRIDTSCVCTLTIKRGR",induced cells expressing the TH protein at a detectable level,[1],More than 30%
same,dopamine secreted to the depolarization buffer (mean),[2]; 56 mM KCL in HBSS for 30 minutes,1127.86 pg/ml of dopamine per 10^6 cells
same,dopamine secreted to the conditioned media (mean),[2]; differentiation medium,673.69 pg/ml of dopamine per 10^6 cells
same,cell morphology,[3],neuron-like appearance
same,GAD67 expression,[4],down regulation
same,Nurr1 expression,[4]; compared to untreated MSCs,significant upregulation
